From US20210292392A1 (TSB THERAPEUTICS BEIJING, published 2021)

How the values were obtained:
[1] = molecular target: recombinant RBD of the spike protein of SARS-CoV (SARS-CoV, UniProt P59594 306-527); assay: SPR, RBD on CM5 chip
[2] = molecular target: T1, full length spike of SARS-CoV (SARS-CoV, UniProt P59594 14-1255); assay: FACS, HEK 293T cells expressing the full length spike, anti-human IgG Fc PE
T1 construct: whole, on cells

[3] = molecular target: T2, full length spike of MERS-CoV (MERS-CoV, UniProt K9N5Q8 18-1353); assay: as above
T2 construct: whole, on cells
T2 sequence (K9N5Q8 18-751, chain 1 of 2): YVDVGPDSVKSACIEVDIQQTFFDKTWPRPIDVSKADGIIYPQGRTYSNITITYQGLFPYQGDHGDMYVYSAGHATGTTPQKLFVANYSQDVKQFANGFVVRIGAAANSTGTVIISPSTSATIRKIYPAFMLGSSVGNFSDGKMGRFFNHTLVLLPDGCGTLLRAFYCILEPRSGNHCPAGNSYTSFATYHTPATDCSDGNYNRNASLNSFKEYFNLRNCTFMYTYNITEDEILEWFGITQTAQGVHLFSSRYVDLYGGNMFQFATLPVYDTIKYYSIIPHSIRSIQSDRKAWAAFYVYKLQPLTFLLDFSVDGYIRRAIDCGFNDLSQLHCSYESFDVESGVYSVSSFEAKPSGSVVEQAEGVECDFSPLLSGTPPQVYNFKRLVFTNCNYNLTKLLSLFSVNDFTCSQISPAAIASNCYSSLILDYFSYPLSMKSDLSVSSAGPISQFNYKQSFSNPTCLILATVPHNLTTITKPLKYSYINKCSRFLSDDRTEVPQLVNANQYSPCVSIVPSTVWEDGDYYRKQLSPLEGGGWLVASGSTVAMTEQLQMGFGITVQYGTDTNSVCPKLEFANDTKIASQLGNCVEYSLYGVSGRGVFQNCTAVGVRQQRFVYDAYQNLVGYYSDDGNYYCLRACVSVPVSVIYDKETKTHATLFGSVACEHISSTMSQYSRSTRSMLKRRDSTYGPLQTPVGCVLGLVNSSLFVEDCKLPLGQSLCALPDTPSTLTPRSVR
T2 sequence (K9N5Q8 752-1353, chain 2 of 2): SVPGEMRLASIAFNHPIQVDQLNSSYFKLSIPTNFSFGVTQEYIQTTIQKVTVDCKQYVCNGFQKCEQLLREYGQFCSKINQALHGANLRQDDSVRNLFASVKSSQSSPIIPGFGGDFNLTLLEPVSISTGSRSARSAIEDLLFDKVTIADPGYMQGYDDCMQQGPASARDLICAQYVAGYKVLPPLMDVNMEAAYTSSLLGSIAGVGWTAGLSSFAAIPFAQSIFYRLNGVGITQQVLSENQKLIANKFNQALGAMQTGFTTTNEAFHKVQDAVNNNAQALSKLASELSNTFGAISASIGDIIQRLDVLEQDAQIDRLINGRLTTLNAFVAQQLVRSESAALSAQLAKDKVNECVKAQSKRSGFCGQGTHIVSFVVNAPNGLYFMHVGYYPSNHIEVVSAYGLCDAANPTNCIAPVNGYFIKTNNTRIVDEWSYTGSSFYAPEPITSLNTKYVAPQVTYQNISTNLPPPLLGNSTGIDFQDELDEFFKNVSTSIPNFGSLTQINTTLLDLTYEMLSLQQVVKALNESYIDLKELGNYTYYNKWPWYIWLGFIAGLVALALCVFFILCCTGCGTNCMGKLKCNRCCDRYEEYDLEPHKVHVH

B1: P1A-1C10 (antibody, V domains shown)
VH: QVQLVQSGAEVKNPGSSVKVSCKAGGGTSSFYDINWVRQAPGQGLEWIGKIIPRLDIADYAQKSQGRVTITADKSTSTVYLELSSLKSDDTAVYFCARGRPGSEWAYGPFDLWGQGTLVTVSS
VL: DIQMTQSPSTLSASVGDRVTITCRASQSSRAWLAWYQQKPGKAPKLLISKASSLESGVPSRFSGSGYGTEFTLTISSLQPDDSATYYCHQYNSSPFTFGPGTKVQIKR
notes: human IgG1, kappa
- binding result [1]: no binding (tested: not printed)
- binding result [2]: no binding (tested: 20 µg/ml)
- binding result [3]: no binding (tested: 20 µg/ml)
